Patent US20050009067A1, “Expression profile of pancreatic cancer” (priority 2003, published 2005)
Blank lines part the entries; values can stand above or below the molecule they belong to.

How the values were obtained:
[1] = target: RAGE (endogenous, of NIH3T3 cells) (UniProt Q62151); assay: cell-based or functional assay
S100 proteins = conditions: Okada et al. 2002; cited from earlier work
NIH3T3 cells [2] = assay: NIH3T3 cell survival after apoptotic insults (5-FU, anoikis on polyHEMA); format: cell-based
Method: Apoptosis was induced in NIH3T3 cells either by prevention of cell adhesion to a solid substrate (anoikis) or by use of 5-flurouracil. To prevent cell adhesion, 6 well plates were covered (3 ml/well) with a solution of polyhydroxyethylmethacrylate (polyHEMA; Sigma-Aldrich) dissolved at 10 mg/ml in ethanol. Plates were kept at 37° C. for 5 days to evaporate solvent completely. Cells were resuspended at 5×10^4 cells/ml and were cultured (1 ml/well) in DMEM medium containing 10% fetal calf serum for different times on polyHEMA coated dishes at 37° C. and 5% CO2. Subsequently, cells were subjected to cell viability studies using MTS or recovered and analyzed for caspase 3 activity.

RAGE = target: T1, RAGE (Mus musculus, UniProt Q62151); assay: Co-immunoprecipitation (pull-down) of S100P with RAGE from NIH3T3 lysates; format: binding; conditions: NIH3T3 lysates incubated with S100P and S100P antibody
T1 construct: RAGE was present in the S100P complexes from wild-type NIH3T3 cells incubated with exogenous S100P and S100P antibody; endogenous in cells; host or cells: NIH3T3 cell lysates for RAGE; E. coli TOP10 for the added His-S100P
Method: For co-immunoprecipitation experiments, cell lysates were incubated in the absence or presence of S100P (1 μg) at 4° C. overnight. S100P was immunoprecipitated using mouse monoclonal antibody against S100P (Transduction Laboratories, San Diego, Calif.), for 6 hours at 4° C. and IgG immobolized beads (Pierce, Rockford, Ill.). Antibody associated proteins were electrophoresed on 10% polyacrylamide gel and transferred to nitrocellulose membrane. Transferred membrane was blocked by 5% milk solution overnight at 4° C. RAGE was detected as described.

NIH3T3 cells [3] = assay: Cell growth (MTS) of NIH3T3 cells with exogenously applied purified S100P; format: cell-based
Method: Cell growth was analyzed by using MTS reagent (Promega, Madison, Wis.) as per manufactures directions. For studies on the effects of S100P expression, vector alone and three different clonal S100P stably transfected cell lines (1000 cells/well) were seeded into 96 well plates and cell growth was studied from 0-120 hrs. For studies on the effects of exogenously applied S100P, purified S100P was added at indicated concentrations for specific times. MTS was added to the wells one hour before taking the photometric reading.
Full length S100P cDNA was cloned into pTrcHis2 vector (Invitrogen, Carlsbad, Calif.) and transformed into one shot TOP10 competent E.coli. The bacterial culture was incubated at 37° C. to an OD600=0.6, then IPTG (1 mM) was added and the bacteria were cultured for another 3 hrs. His-S100P was purified using Probond resin column as described by the manufacturer (Invitrogen, Carlsbad, Calif.). The fraction was further dialyzed against 10 mM Tris, pH 8.0, containing 01% Triton X 100 overnight at 4° C. using a Slide-A-Lyzer 10K (Pierce, Rockford, Ill.). Dialyzed protein was further concentrated by Centricon centrifugal filter device YM10 (Millipore, Bedford, Mass.). The purified S100P protein was confirmed by western blot and ELISA and used for in vitro experiments.

NF-κB = NF-κB electrophoretic mobility shift assay in NIH3T3 cells; format: cell-based
Method: Nuclear extracts were prepared and used for electrophoretic mobility shift assays (EMSAs) as previously described (Han et al., Am. J. Physiol. 277:C74 [1999]). For NF-κB DNA binding the reaction was started by addition of 10,000 cpm of the 22-base pair oligonucleotide 5′-AGTTGAGGGGACTTTCCCAGGC-3′ (SEQ ID NO:7) containing the NF-κB consensus sequence that had been labeled with [γ-32P]-ATP (10 mCi/mmol) by T4 polynucleotide kinase. The reaction was allowed to proceed for 30 min at room temperature. For cold competition experiments unlabeled NF-κB oligonucleotide or OCT1 oligonucleotide as a nonspecific competitor (300×) were added to the binding reaction 5 min before the addition of the radiolabeled probe. For antibody supershift assays 2 μl of specific antibodies to NF-κB protein subunits p65, p50, and c-Rel were incubated with nuclear extracts for 1 hour at room temperature prior to the addition of labeled probe. All reaction mixtures were subjected to PAGE on 4.5% gel in 0.5×TBE buffer at 200 V. Gels were dried and directly exposed to the membranes were exposed to a B-1 phosphoimaging screen and visualized by the use of GS-250 Molecular Imaging System (Bio-Rad Laboratories, Richmond, Calif.).

Erk 1 & 2 = Erk 1 & 2 phosphorylation in NIH3T3 cells (western blot); format: cell-based
Method: Western blot analysis was utilized for the detection of S100P, RAGE, as well as activated Erks and caspase 3 by minor modifications of previously published methods. Cell lysates were prepared and separated by SDS polyacrylimide gel electrophoresis and transferred to nitrocellulose. Membranes were blocked by overnight incubation at 4° C. in 5% milk solution. S100P was detected usingmonoclonal antibodies (Transduction Laboratories, San Diego, Calif.) by incubating the membrane overnight at 4° C. in antibody diluted 1:100 in 5% milk solution. RAGE was detected using goat polyclonal antibodies (Santa Cruz, Santa Cruz, Calif.) by incubating the transferred membrane in for one hour at room temperature with antibody diluted 1:100 in 5% milk solution. Caspase 3 activation was estimated by detection of pro-caspase 3 and active caspase 3 fragments using rabbit polyclonal antibodies against full length caspase 3 (Santacruz Biotech, Calif.) by incubating the membrane at 4° C. for overnight with antibody diluted 1:100 in 5% milk solution. Erk activation was estimated by detection of phosphorylated forms of Erk 1 and 2 using phospho-p44/42 MAP kinase (Thr202/Tyr204) antibody (Cell Signaling, Beverly, Mass.) and, as a loading control after striping, a rabbit polyclonal antibody for total Erk 1 & 2 (Santa Cruz, Santa Cruz, Calif.) by incubating the membrane at 4° C. overnight with antibody diluted 1:100 in 5% milk solution. Second antibody anti-mouse, anti-rabbit, or anti-goat IgG+HRP was incubated for one hour at room temperature and the signal was detected by ECL detection system (Amersham) as per manufacturer protocol.

Chain of RAGE (endogenous, of NIH3T3 cells) (Q62151 23-402 limits assumed): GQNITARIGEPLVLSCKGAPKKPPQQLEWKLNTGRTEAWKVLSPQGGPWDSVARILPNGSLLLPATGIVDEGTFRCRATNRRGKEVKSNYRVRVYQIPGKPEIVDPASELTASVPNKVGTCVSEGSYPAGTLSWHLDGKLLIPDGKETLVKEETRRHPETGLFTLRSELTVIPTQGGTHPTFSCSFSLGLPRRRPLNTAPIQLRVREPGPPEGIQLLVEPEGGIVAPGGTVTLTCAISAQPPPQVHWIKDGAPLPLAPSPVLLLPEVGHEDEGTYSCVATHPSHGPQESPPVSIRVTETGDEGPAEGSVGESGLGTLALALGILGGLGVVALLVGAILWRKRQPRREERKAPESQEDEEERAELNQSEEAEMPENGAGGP
T1 sequence (Q62151 23-402): as the sequence (Q62151 23-402 limits assumed) above

Molecule: CC(C)c1ccc2oc3nc(N)c(C(=O)O)cc3c(=O)c2c1 [amlexanox]
interaction with S100 proteins (S100 proteins): interact with S100 proteins

Molecule: CN(C)CC/C=C1/c2ccccc2COc2ccc(CC(=O)O)cc21 [olopatadine]
interaction with S100 proteins (S100 proteins): interact with S100 proteins

Molecule: O=c1[nH]cc(F)c(=O)[nH]1 [5-FU, 5-fluorouracil, reference compound]
killing of NIH3T3 cells (NIH3T3 cells [2]; wild-type vs S100P expressing NIH3T3 cells, 5-FU 150 ug/ml (FIG. 5B)): efficiently kill wild-type but not S100P expressing NIH3T3 cells

B1: S100P: purified S100P generated as a His-tagged fusion protein in bacteria (protein, UniProt P25815 1-95, looked up)
Protein S100-P: MTELETAMGMIIDVFSRYSGSEGSTQTLTKGELKVLMEKELPGFLQSGKDKDAVDKLLKDLDANGDAQVDFSEFIVFVAAITSACHKYFEKAGLK
modifications: His tag
notes: purified S100P generated as a His-tagged fusion protein in bacteria
interaction with RAGE (co-immuno-precipitation) (RAGE): can interact directly with RAGE
concentration giving maximal effect on cell proliferation (NIH3T3 cells [3]; NIH3T3 cells): 100 nM
concentration at which effects on cell proliferation were noted (NIH3T3 cells [3]; purified S100P added to NIH3T3 cells, dose-response): 10 pM
time after which significant increase in cell proliferation was noted (NIH3T3 cells [3]; time-course): 48 h
maximal effect on cell proliferation (NIH3T3 cells [3]; with 100 nM S100P): ~2 fold over control
concentration at which protection from the effects of 5 FU was noted (NIH3T3 cells [2]; S100P added to culture medium, NIH3T3): 1 nM
time after which significant protection from anoikis was noted (NIH3T3 cells [2]; time-course): 36 h
duration increase in NF-κB DNA binding was maintained (NF-κB; S100P, NIH3T3, EMSA): at least 2 hours
time to initiation of increase in NF-κB DNA binding (NF-κB; S100P, NIH3T3, EMSA): ≤ 10 min
concentration at which significant effects on NF-κB activation were noted (NF-κB; concentration dependence): 0.1 nM
concentration giving maximal effect on NF-κB activation (NF-κB; concentration dependence): 100 nM
concentration at which effects on Erk phosphorylation were noted (Erk 1 & 2; dose-response): 10 pM
concentration giving maximal effects on Erk phosphorylation (Erk 1 & 2; dose-response): 100 nM
duration Erk phosphorylation remained significantly elevated (Erk 1 & 2; purified S100P, NIH3T3): at least 2 hours
time of maximal increase of Erk phosphorylation (Erk 1 & 2; purified S100P, NIH3T3): 30 min
time to significant Erk 1 & 2 phosphorylation (Erk 1 & 2; purified S100P, NIH3T3): ≤ 10 min

Now from value to molecule, other results behind:

inhibition of S100P activation of Erk [1]: 50 nM
inhibition of S100P activation of Erk, complete [1]: 500 nM
Molecule: synthetic peptide derived from amphoterin (RAGE antagonist peptide)

NIH3T3 cell proliferation, fold over control [1]: 2 fold
Molecule: purified His-S100P protein (His-tagged fusion protein of full length S100P made in E. coli) (from UniProt P25815 1-95) (ligand)
survival of NIH3T3 cells after 5 FU [1]: 1 nM
